Target: mouse NF-YA minimal domain;mouse NF-YB HFD;mouse NF-YC HFD (mouse;mouse;mouse, UniProt P23708-2;P63139;P70353 233-303;49-141;27-120, ||)
Assay: agarose EMSA; positive control; 32P EMSA: 20 mM Hepes pH 7.9, 50 mM NaCl, 5% glycerol, 5 mM MgCl2, 5 mM b-ME, 20 C; Cy5 agarose EMSA: 20 nM DNA, 20 mM Tris pH 7.5, 50 mM NaCl, 0.5 mM EDTA, 5 mM MgCl2, 2.5 mM DTT, 0.1 mg/ml BSA, 5% glycerol, 23 C
Details: protein: recombinant;recombinant;recombinant; tags: C-terminal His cleaved by thrombin;6His in dimer; untagged in purified trimer;; copies: 1;1;1; label: 5'-Cy5; blunt

Chain of mouse NF-YA minimal domain;mouse NF-YB HFD;mouse NF-YC HFD (P23708 261-331, chain 1 of 3): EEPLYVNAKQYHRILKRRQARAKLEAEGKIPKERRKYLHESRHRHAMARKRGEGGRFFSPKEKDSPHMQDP
Chain of mouse NF-YA minimal domain;mouse NF-YB HFD;mouse NF-YC HFD (P63139 49-141, chain 2 of 3): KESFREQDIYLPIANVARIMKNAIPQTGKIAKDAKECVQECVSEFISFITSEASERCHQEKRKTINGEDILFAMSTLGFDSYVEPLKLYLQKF
Chain of mouse NF-YA minimal domain;mouse NF-YB HFD;mouse NF-YC HFD (P70353 27-120, chain 3 of 3): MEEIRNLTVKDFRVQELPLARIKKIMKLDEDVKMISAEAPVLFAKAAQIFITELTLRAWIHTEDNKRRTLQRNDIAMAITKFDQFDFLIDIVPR

B1: HSP70 CCAAT 31 bp probe (dsDNA)
DNA 1: CTTCTGAGCCAATCACCGAGCTCGATGAGGC
DNA 2: GCCTCATCGAGCTCGGTGATTGGCTCAGAAG
binding result: binds
